# Measurements: paper PMC11213948 (2024)
# B1: Xpress-His G5_(845–1508) [not stated] / G5_(1–1508)-FLAG [not stated] (parent complex)
# chain 1: ARSLLPLSTSLDHRSKEELHQDCLVLATAKHSRELNEDVSADVEERFHLGLFTDRATLYRMIDIEGKGHLENGHPELFHQLMLWKGDLKGVLQTAAERGELTDNLVAMAPAAGYHVWLWAVEAFAKQLCFQDQYVKAASHLLSIHKVYEAVELLKSNHFYREAIAIAKARLRPEDPVLKDLYLSWGTVLERDGHYAVAAKCYLGATCAYDAAKVLAKKGDAASLRTAAELAAIVGEDELSASLALRCAQELLLANNWVGAQEALQLHESLQGQRLVFCLLELLSRHLEEKQLSEGKSSSSYHTWNTGTEGPFVERVTAVWKSIFSLDTPEQYQEAFQKLQNIKYPSATNNTPAKQLLLHICHDLTLAVLSQQMASWDEAVQALLRAVVRSYDSGSFTIMQEVYSAFLPDGCDHLRDKLGDHQSPATPAFKSLEAFFLYGRLYEFWWSLSRPCPNSSVWVRAGHRTLSVEPSQQLDTASTEETDPETSQPEPNRPSELDLRLTEEGERMLSTFKELFSEKHASLQNSQRTVAEVQETLAEMIRQHQKSQLCKSTANGPDKNEPEVEAEQPLCSSQSQCKEEKNEPLSLPELTKRLTEANQRMAKFPESIKAWPFPDVLECCLVLLLIRSHFPGCLAQEMQQQAQELLQKYGNTKTYRRHCQTFCM
# chain 2: MGQEPRTLPPSPNWYCARCSDAVPGGLFGFAARTSVFLVRVGPGAGESPGTPPFRVIGELVGHTERVSGFTFSHHPGQYNLCATSSDDGTVKIWDVETKTVVTEHALHQHTISTLHWSPRVKDLIVSGDEKGVVFCYWFNRNDSQHLFIEPRTIFCLTCSPHHEDLVAIGYKDGIVVIIDISKKGEVIHRLRGHDDEIHSIAWCPLPGEDCLSINQEETSEEAEITNGNAVAQAPVTKGCYLATGSKDQTIRIWSCSRGRGVMILKLPFLKRRGGGIDPTVKERLWLTLHWPSNQPTQLVSSCFGGELLQWDLTQSWRRKYTLFSASSEGQNHSRIVFNLCPLQTEDDKQLLLSTSMDRDVKCWDIATLECSWTLPSLGGFAYSLAFSSVDIGSLAIGVGDGMIRVWNTLSIKNNYDVKNFWQGVKSKVTALCWHPTKEGCLAFGTDDGKVGLYDTYSNKPPQISSTYHKKTVYTLAWGPPVPPMSLGGEGDRPSLALYSCGGEGIVLQHNPWKLSGEAFDINKLIRDTNSIKYKLPVHTEISWKADGKIMALGNEDGSIEIFQIPNLKLICTIQQHHKLVNTISWHHEHGSQPELSYLMASGSNNAVIYVHNLKTVIESSPESPVTITEPYRTLSGHTAKITSVAWSPHHDGRLVSASYDGTAQVWDALREEPLCNFRGHRGRLLCVAWSPLDPDCIYSGADDFCVHKWLTSMQDHSRPPQGKKSIELEKKRLSQPKAKPKKKKKPTLRTPVKLESIDGNEEESMKENSGPVENGVSDQEGEEQAREPELPCGLAPAVSREPVICTPVSSGFEKSKVTINNKVILLKKEPPKEKPETLIKKRKARSLLPLSTSLDHRSKEELHQDCLVLATAKHSRELNEDVSADVEERFHLGLFTDRATLYRMIDIEGKGHLENGHPELFHQLMLWKGDLKGVLQTAAERGELTDNLVAMAPAAGYHVWLWAVEAFAKQLCFQDQYVKAASHLLSIHKVYEAVELLKSNHFYREAIAIAKARLRPEDPVLKDLYLSWGTVLERDGHYAVAAKCYLGATCAYDAAKVLAKKGDAASLRTAAELAAIVGEDELSASLALRCAQELLLANNWVGAQEALQLHESLQGQRLVFCLLELLSRHLEEKQLSEGKSSSSYHTWNTGTEGPFVERVTAVWKSIFSLDTPEQYQEAFQKLQNIKYPSATNNTPAKQLLLHICHDLTLAVLSQQMASWDEAVQALLRAVVRSYDSGSFTIMQEVYSAFLPDGCDHLRDKLGDHQSPATPAFKSLEAFFLYGRLYEFWWSLSRPCPNSSVWVRAGHRTLSVEPSQQLDTASTEETDPETSQPEPNRPSELDLRLTEEGERMLSTFKELFSEKHASLQNSQRTVAEVQETLAEMIRQHQKSQLCKSTANGPDKNEPEVEAEQPLCSSQSQCKEEKNEPLSLPELTKRLTEANQRMAKFPESIKAWPFPDVLECCLVLLLIRSHFPGCLAQEMQQQAQELLQKYGNTKTYRRHCQTFCM
# B2: Xpress-His G5_(845–1287) [not stated] / G5_(1–1508)-FLAG [not stated] (parent complex)
# chain 1: ARSLLPLSTSLDHRSKEELHQDCLVLATAKHSRELNEDVSADVEERFHLGLFTDRATLYRMIDIEGKGHLENGHPELFHQLMLWKGDLKGVLQTAAERGELTDNLVAMAPAAGYHVWLWAVEAFAKQLCFQDQYVKAASHLLSIHKVYEAVELLKSNHFYREAIAIAKARLRPEDPVLKDLYLSWGTVLERDGHYAVAAKCYLGATCAYDAAKVLAKKGDAASLRTAAELAAIVGEDELSASLALRCAQELLLANNWVGAQEALQLHESLQGQRLVFCLLELLSRHLEEKQLSEGKSSSSYHTWNTGTEGPFVERVTAVWKSIFSLDTPEQYQEAFQKLQNIKYPSATNNTPAKQLLLHICHDLTLAVLSQQMASWDEAVQALLRAVVRSYDSGSFTIMQEVYSAFLPDGCDHLRDKLGDHQSPATPAFKSLEAFFLYGRLYE
# chain 2: B1 chain 2
# B3: Xpress-His G5_(1–1287) [not stated] / G5_(1–1508)-FLAG [not stated] (parent complex)
# chain 1: MGQEPRTLPPSPNWYCARCSDAVPGGLFGFAARTSVFLVRVGPGAGESPGTPPFRVIGELVGHTERVSGFTFSHHPGQYNLCATSSDDGTVKIWDVETKTVVTEHALHQHTISTLHWSPRVKDLIVSGDEKGVVFCYWFNRNDSQHLFIEPRTIFCLTCSPHHEDLVAIGYKDGIVVIIDISKKGEVIHRLRGHDDEIHSIAWCPLPGEDCLSINQEETSEEAEITNGNAVAQAPVTKGCYLATGSKDQTIRIWSCSRGRGVMILKLPFLKRRGGGIDPTVKERLWLTLHWPSNQPTQLVSSCFGGELLQWDLTQSWRRKYTLFSASSEGQNHSRIVFNLCPLQTEDDKQLLLSTSMDRDVKCWDIATLECSWTLPSLGGFAYSLAFSSVDIGSLAIGVGDGMIRVWNTLSIKNNYDVKNFWQGVKSKVTALCWHPTKEGCLAFGTDDGKVGLYDTYSNKPPQISSTYHKKTVYTLAWGPPVPPMSLGGEGDRPSLALYSCGGEGIVLQHNPWKLSGEAFDINKLIRDTNSIKYKLPVHTEISWKADGKIMALGNEDGSIEIFQIPNLKLICTIQQHHKLVNTISWHHEHGSQPELSYLMASGSNNAVIYVHNLKTVIESSPESPVTITEPYRTLSGHTAKITSVAWSPHHDGRLVSASYDGTAQVWDALREEPLCNFRGHRGRLLCVAWSPLDPDCIYSGADDFCVHKWLTSMQDHSRPPQGKKSIELEKKRLSQPKAKPKKKKKPTLRTPVKLESIDGNEEESMKENSGPVENGVSDQEGEEQAREPELPCGLAPAVSREPVICTPVSSGFEKSKVTINNKVILLKKEPPKEKPETLIKKRKARSLLPLSTSLDHRSKEELHQDCLVLATAKHSRELNEDVSADVEERFHLGLFTDRATLYRMIDIEGKGHLENGHPELFHQLMLWKGDLKGVLQTAAERGELTDNLVAMAPAAGYHVWLWAVEAFAKQLCFQDQYVKAASHLLSIHKVYEAVELLKSNHFYREAIAIAKARLRPEDPVLKDLYLSWGTVLERDGHYAVAAKCYLGATCAYDAAKVLAKKGDAASLRTAAELAAIVGEDELSASLALRCAQELLLANNWVGAQEALQLHESLQGQRLVFCLLELLSRHLEEKQLSEGKSSSSYHTWNTGTEGPFVERVTAVWKSIFSLDTPEQYQEAFQKLQNIKYPSATNNTPAKQLLLHICHDLTLAVLSQQMASWDEAVQALLRAVVRSYDSGSFTIMQEVYSAFLPDGCDHLRDKLGDHQSPATPAFKSLEAFFLYGRLYE
# chain 2: B1 chain 2
# Variants of: B1
# Assay: pull-down; HEK293 cell lysates; western blot with anti-FLAG and anti-Xpress; n = 3; read off a plot
row,response,Variant
1,~0.38 relative intensity (PD/In),chain 1 A107E

# Variants of: B2
# Assay: pull-down; HEK293 cell lysates; western blot with anti-FLAG and anti-Xpress; read off a plot
row,response,Variant
1,~0.33 relative intensity (PD/In),chain 1 A107E

# Variants of: B3
# Assay: pull-down; HEK293 cell lysates; western blot with anti-FLAG and anti-Xpress; n = 5; read off a plot
row,response,Variant
1,~0.29 relative intensity (PD/In),chain 1 A951E
